# Measured values reported in article PMC11626941, “FBLN7 mediates vascular smooth muscle cell phenotype switching and vascular remodeling in hypertension” (Theranostics, 2024).
# Values joined by “and” are separate entries in the source; they are usually repeats but may differ in a detail not shown here. Equal values may be shown once.
# B1: Flag-tagged full-length mouse SDC4 (receptor, UniProt O35988 24-198, looked up)
# chain: ESIRETEVIDPQDLLEGRYFSGALPDDEDAGGSDDFELSGSGDLDDTEEPRPFPEVIEPLVPLDNHIPENAQPGIRVPSEPKELEENEVIPKRAPSDVGDDMSNKVSMSSTAQGSNIFERTEVLAALIVGGVVGILFAVFLILLLVYRMKKKDEGSYDLGKKPIYKKAPTNEFYA
# notes: Plasmids provided by GenePharma; Seen as monomer, dimer and tetramer bands on non-reducing blots; also called Flag-SDC4; Flag (SDC4); source: HEK293T, transfected (pcDNA 3.1), in lysate; not shown: Flag, C-terminal, kept
# Target: the molecule itself
# Experiment: immunoblot with non-reducing loading buffer; HEK293T transfected with varying concentrations of SDC4 plasmids; SDS-PAGE, positions of SDC4 tetramer, dimer and monomer
protein,measurement,value
B1,stoichiometry N,2 and 4
